Consider 4 molecules from paper PMC4332252 (The Journal of Cell Biology, 2015).

The data set “SEC-MALS” deals with the molecule itself. The data set is described as follows: SEC-MALS.
The target in the next data set is T1, Plk4-EGFP (Drosophila melanogaster, UniProt O97143 1-769).
T1 sequence (looked up): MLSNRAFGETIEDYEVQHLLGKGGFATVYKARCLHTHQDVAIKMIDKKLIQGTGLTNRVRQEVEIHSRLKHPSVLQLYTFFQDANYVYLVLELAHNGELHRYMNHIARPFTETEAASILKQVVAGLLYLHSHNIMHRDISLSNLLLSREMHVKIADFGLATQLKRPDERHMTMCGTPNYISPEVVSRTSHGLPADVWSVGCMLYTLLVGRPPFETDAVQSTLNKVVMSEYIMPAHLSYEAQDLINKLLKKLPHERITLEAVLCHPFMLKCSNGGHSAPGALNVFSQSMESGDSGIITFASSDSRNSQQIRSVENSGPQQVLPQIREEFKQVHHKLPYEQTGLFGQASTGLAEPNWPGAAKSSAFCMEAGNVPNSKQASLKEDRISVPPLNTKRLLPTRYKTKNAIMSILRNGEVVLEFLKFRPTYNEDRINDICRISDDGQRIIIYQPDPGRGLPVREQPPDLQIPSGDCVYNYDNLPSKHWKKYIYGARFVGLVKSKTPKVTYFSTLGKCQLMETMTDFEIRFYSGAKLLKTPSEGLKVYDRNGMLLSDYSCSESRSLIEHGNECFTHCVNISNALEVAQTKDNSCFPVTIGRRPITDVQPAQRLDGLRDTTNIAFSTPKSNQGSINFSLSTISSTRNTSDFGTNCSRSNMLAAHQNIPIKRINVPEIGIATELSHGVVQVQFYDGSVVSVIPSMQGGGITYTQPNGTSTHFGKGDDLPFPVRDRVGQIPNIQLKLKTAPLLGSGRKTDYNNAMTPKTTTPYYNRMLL
Put plainly: co-IP.

B1: His6-Asl-A (aa 1-357) (domain or fragment, Drosophila melanogaster, UniProt Q9VNE4 1-357, looked up)
chain: MNTPGISLFQGADALNINSTLDRQEEEEALQDQKRREEELGRIMVNAFDDLLDEENTIDSTTNYQSELEQPPVLPNYPSHPHHKPLQDDAQRANEIEMHRLQILLESKNNELQNVNQVANAAHKKLDDLQKHLSIMQAELDRAIREKQNTHELLVETKETCSNKDSDLDKLRSEKKQLEEDNTRLVGQLEAAKTLLTDVQSKYDMVQASKQKWEERNADLRLKQMEEAHRAQSDLLQQQLCQMKDQLDRKQNELDQINSRYNALQSGHETMLVDKAAKINELSQALDEAQMRCNQLSARPDLQAENRRQQQCIVDLKARIAYLEQTVASLHERLNETTTELDLIDSVIQQHQADESP
B1: the “stoichiometry N” value in “SEC-MALS” is 2.

B2: His6-Asl-C (aa 626-994) (domain or fragment, Drosophila melanogaster, UniProt Q9VNE4 626-994, looked up)
chain: EAVAVAKESSENCSKCIESIAEITKAEIQLLKLQNVNSMQAKELKELEHALEQSKNLQAEMQEKIELSNKQDELISDLKERAKQFEAYIRQQEEHKQQNKCTPSPKSNSVSPSDPSPKELTQNRIRLIEQRVRDEMAKLFAAELKRFTNRLQKSEERSQCLQREYQTVCAELQQRQTEVDLLKQTILAERENIDEILAGREEKQKEMLQKCRQELQAKNQRIAELLREVEEQHASIDSERQSMKAVMAQWEKQRQSVDQVEHHWRQQLESLRSTHEEAMRSAQQRYQSAKRTAHNYKLYAEDKEAHMKREYERIKHEYELSLAKIEATMNQHLERRSREKHRDKENVPSNSSSDPITNSNRKPKGNGHS
B2: the “stoichiometry N” value in the data set “SEC-MALS” is 3.

B3: Plk4-myc (natural protein, Drosophila melanogaster, UniProt O97143 1-769, looked up)
chain: T1 sequence (looked up)
For the molecule B3, in the data set with Plk4-EGFP, the “fold increase of bound Plk4-myc with Asl coexpressed, against without Asl” value was approximately 4 fold.

B4: His6-Asl-B (aa 358-625) (domain or fragment, Drosophila melanogaster, UniProt Q9VNE4 358-625, looked up)
chain: TSRLSQMGGSRLVGSTPLNPLDRVGHIKQELYRALGNLKNKREEVRRLEKLLEERNQELRVLRDQENQSLVQLETLNEGKMRLENKVKAMQQELEEQKHRSQQESDVHSQLNSIVAERDALREKRQQIEEDLEQLKQQNESLQRNYDQLSQENRQLRTRETADNLRLELERHKILLRDSQSEVERLKKLYSDIATDKESLGYELRKLRESDTLKELQDQRQNLATVQRNLQLAEMKSEELKKLLETEKLSHERDLQALRQRSEREKRE
Turning to B4, the “stoichiometry N” value in the data set “SEC-MALS” turned out to be 2.
